For one data set, the system named is MS1 endothelial cells. In words: 125I-VEGF165 binding to adenovirus-infected MS1 endothelial cells. More on the design: species or system mouse. The settings on record: cells infected with adenovirus expressing TIMP3Cys1-Ser. How it is done: Radioligand binding is expressed as percent binding and is the mean±s.e.m. of triplicate samples. […] All values are expressed as mean±s.e.m. of triplicate samples. […] Binding is expressed as mean±s.e.m. Data is shown as percent binding of triplicate samples, with binding to PAE-KDR cells in the absence of any inhibitor as 100%. *, P<0.01. […] P<0.01.
(§1) MS1 mouse endothelial cells\(American Type Culture Collection, Manassas, Va.) were cultured until 80% confluent and infected with adenovirus as described. Cells were infected at 50 or 200 plaque-forming units per cell for 18 h. Medium was then replaced with fresh complete medium and left for 48 h until analysis.

Data set [1] deals with MS1 mouse endothelial cells. In words: MS1 endothelial cells infected with adenovirus expressing WT-TIMP3 or TIMP3Cys1-Ser: apoptosis and [3H]thymidine incorporation. The format is cell-based. How it is done: as §1
A modified Boyden chamber assay for migration and proliferation assays were carried out as described.
(In general: Dividing cells build labelled thymidine or BrdU into new DNA.)

Data set [2] relates to MMPs. As to the kind of experiment: Reverse zymography of ECM extracts (MMP-inhibitory activity). The format is biochemical. The settings on record: MS1 cells infected with Rad-TIMP3Cys1-Ser vs wild-type. How it is done:
Conditioned medium, cell lysates and ECM fractions from transfected cells were prepared. Equal amounts of protein were loaded onto a 12% gel with 1 mg/ml gelatin plus RPE cell-conditioned medium, as a source of MMPs, for reverse zymography and processed as described.

Data set [3] deals with ERK1 (p44) and ERK2 (p42). As to the kind of experiment: VEGF-stimulated ERK1/2 phosphorylation in transfected PAEKDR cells (Western blot). The format is cell-based. As to conditions: mutant cells; data not shown. How it is done:
Cell fractions or immunoprecipitates of the lysates with the indicated antibodies were subjected to SDS-PAGE. Proteins were detected with either a HRP-conjugated anti-rabbit or anti mouse IgG antibody (Amersham Pharmacia Biotech., Piscataway, N.J.) followed by ECL. The blots were restripped with Western ReProbe™ solution (Genotech) for 30 minutes and reprobed as indicated.
Activation of MAP kinase is a known activated VEGFR-2 downstream signaling event. We measured the phosphorylation of two MAP kinases, ERK1 (p44) and ERK2 (p42) by western blot analysis of membrane fractions in WT and mutant ECs.

The test system of data set [4] is PAEKDR cells. As to the kind of experiment: VEGF-stimulated migration (modified Boyden chamber) of transfected PAEKDR cells. Type of data set: cell-based, porcine. The settings on record: VEGF 50 ng/ml. How it is done: A modified Boyden chamber assay was carried out as described previously 34. Briefly, 8.0 μm pore PVPF polycarbonate membranes were pre-coated with 100 μg/ml collagen type I in 0.2 N acetic acid (Cohesion technologies, INC. Pala Alto, Calif.). […] Chamber was then incubated for 4 hrs at 37° C. in a 5% CO2 humidified incubator. Cells remaining on the top of the filter were removed. Cells on the bottom surface of the filter were fixed, stained and mounted. The number of migrating cells per well was counted microscopically.

Another data set has as its target T1, VEGFR-2 (KDR) (Homo sapiens, UniProt P35968).
T1 construct: To determine whether these receptor isoforms represent full-length VEGFR-2; expressed in transfected cells; host or cells: porcine aortic endothelial (PAE) cells
As to the kind of experiment: [125I]VEGF binding in transfected PAEKDR cell lines. The settings on record: PAEKDR cells expressing mutant TIMP3 vs vector. Here is the method: PAEKDR cells were transfected with TIMP3 cDNA or empty vector using Lipofectamine reagent (Gibco-BRL Rockville, Md.). Stable clones were isolated using Hygromycin selection.
After washing, the cell monolayers were solubilized with lysis buffer (20 mM Tris HCl pH 7.5, 1% triton X 100 and 10% glycerol), and the radioactivity measured in a gamma counter.

The test system of the next data set is surface KDR. In words: Surface KDR immunofluorescence staining. Type of data set: cell-based. The settings on record: clone KDR-2 antibody; data not shown. Here is the method:
(§2) For immunostaining, subconfluent cells cultured on Falcon cultureslides (BD, Biosciences) were used. For surface KDR detection, cells were fixed in 1% paraformaldehyde for 10 min at 4° C. Following blocking with 1% BSA cells were incubated with anti-extracellular VEGFR-2 monoclonal antibody for 1 h at room temperature. Surface KDR was detected with biotinylated anti-mouse […] (1:1000) and Texas Red avidin D (1:1500) using standard procedures. […] The cells were fixed with 3.7% paraformaldehyde in PBS for 30 min at 4° C. and permeabilized with 0.2 Triton X-100 for 20 min at room temperature. Following rinsing with PBS the cells were incubated with fluorescein isothiocyanate (FITC)-labeled phalloidin in PBS (0.66 μg/ml, Sigma) for 20 min at room temperature washed with PBS and analyzed by fluorescence microscopy.

Data set [5] deals with MMPs. As to the kind of experiment: Reverse zymography of ECM and CM of transfected PAEKDR cells. The format is biochemical. As to conditions: PAEKDR cells expressing WT or mutant TIMP3. How it is done: Conditioned medium, cell lysates and ECM fractions from transfected cells were prepared as described previously (Qi et al., 2002). Equal amounts of protein were loaded onto a 12% gel with 1 mg/ml gelatin plus RPE cell-conditioned media, as a source of MMPs, for reverse zymography and processed as described previously (Pavloff et al., 1992).

Data set [6] relates to PAEKDR cells. As to the kind of experiment: Tube formation assay in type 1 collagen gels. The format is cell-based, porcine. The settings on record: 50 ng/ml VEGF; three-dimensional collagen gels. How it is done:
Type 1 collagen was mixed with 10×DMEM and 0.1 M NaOH (8:1:1), adjusted to a solution containing 10 μg/ml growth factor reduced matrigel matrix (BD, Biosciences), and then distributed in 48-well dishes. […] After 4 h of incubation at 37° C., a second layer of collagen was added, and cultures were kept under the same conditions as above described. Tube formation was examined using a phase-contrast microscopy at the indicated time points.

A further data set deals with soluble VEGFR-2. In words: Soluble VEGFR-2 (sKDR) in conditioned medium (ELISA). Type of data set: cell-based, human. As to conditions: mutant cells; data not shown. (In general: ELISA stands for enzyme-linked immunosorbent assay.)
For data set [7], the system named is PAEKDR cells. In words: VEGF-stimulated actin reorganization / membrane ruffles. The format is cell-based, porcine. As to conditions: 50 ng/ml VEGF for 15 min. Here is the method: as §2
The target in a further data set is T2, KDR (Homo sapiens, UniProt P35968).
T2 construct: To determine whether these receptor isoforms represent full-length VEGFR-2; expressed in transfected cells; host or cells: porcine aortic endothelial (PAE) cells
T2 sequence (P35968 20-1356): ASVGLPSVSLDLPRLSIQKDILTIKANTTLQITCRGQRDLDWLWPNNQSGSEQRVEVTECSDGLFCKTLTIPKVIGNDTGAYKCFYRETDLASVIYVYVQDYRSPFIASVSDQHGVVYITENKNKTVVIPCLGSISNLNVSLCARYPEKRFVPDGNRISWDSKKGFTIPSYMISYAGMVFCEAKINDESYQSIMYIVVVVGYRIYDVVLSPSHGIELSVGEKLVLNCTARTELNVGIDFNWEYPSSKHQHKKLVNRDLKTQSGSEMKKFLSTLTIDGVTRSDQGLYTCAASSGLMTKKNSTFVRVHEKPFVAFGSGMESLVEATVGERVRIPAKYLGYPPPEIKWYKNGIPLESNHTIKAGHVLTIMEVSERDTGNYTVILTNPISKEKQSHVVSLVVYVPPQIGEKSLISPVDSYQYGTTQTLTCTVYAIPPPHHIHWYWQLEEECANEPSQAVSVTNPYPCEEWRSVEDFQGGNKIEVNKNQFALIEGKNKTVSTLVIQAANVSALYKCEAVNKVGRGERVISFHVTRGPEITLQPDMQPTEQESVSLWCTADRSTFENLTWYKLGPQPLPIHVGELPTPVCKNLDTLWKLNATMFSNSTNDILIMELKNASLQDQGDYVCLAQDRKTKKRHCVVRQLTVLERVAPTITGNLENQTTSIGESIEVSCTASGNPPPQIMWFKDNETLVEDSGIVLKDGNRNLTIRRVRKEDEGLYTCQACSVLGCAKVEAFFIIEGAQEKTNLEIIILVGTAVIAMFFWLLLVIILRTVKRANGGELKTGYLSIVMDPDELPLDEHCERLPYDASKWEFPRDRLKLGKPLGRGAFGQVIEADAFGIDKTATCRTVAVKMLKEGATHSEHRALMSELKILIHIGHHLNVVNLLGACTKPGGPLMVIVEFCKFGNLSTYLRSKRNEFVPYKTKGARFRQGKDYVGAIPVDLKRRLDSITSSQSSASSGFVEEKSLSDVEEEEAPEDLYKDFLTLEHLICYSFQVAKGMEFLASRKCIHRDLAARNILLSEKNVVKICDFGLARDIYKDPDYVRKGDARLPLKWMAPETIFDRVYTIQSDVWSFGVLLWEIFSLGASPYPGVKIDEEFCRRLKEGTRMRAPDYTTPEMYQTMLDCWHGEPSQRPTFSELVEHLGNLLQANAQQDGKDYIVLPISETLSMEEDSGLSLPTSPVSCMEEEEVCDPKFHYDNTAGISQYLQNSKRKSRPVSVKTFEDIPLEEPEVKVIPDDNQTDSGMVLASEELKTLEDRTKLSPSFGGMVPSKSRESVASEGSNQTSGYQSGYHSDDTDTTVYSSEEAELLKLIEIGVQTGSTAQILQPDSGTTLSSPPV
In words: VEGF-stimulated KDR tyrosine phosphorylation in membrane fractions (Western blot). Type of data set: cell-based. As to conditions: mutant cells; data not shown. How it is done: 2 day serum free conditioned medium (CM) was collected from subconfluent cells cultured on six-well plates (Costar). In some cases the CM was further concentrated with heparin-agarose gels (Bio-rad). The cell monolayer was dislodged from the culture plates following a 10 min incubation in Ca2+, Mg2+ free phosphate buffered saline (PBS) containing 2.5 mM EDTA. After several rinses in PBS and water, the ECM was scraped in a small volume of electrophoresis sample buffer without reducing agent for analyses. Plasma membrane (PM) fractions were prepared from cells centrifuged at 500 g and 4° C. for 5 min The supernatant was discarded and the cell pellets were resuspended in PBS containing protease inhibitors, lysed with a 26-gauge syringe needle, and centrifuged at 3,000 g at 4° C. for 15 minutes. The supernatant was centrifuged at […] at 4° C. for 1 hr. The PM pellets were suspended in lysis buffer containing protease inhibitors. In some instances the membrane fraction of cells was prepared using ProteoExtract Subcellular Proteome Extaction Kit (EMD Biosciences, Inc).
Cell fractions or immunoprecipitates of the lysates with the indicated antibodies were subjected to SDS-PAGE. Proteins were detected with either a HRP-conjugated anti-rabbit or anti mouse IgG antibody (Amersham Pharmacia Biotech., Piscataway, N.J.) followed by ECL. […]
(A western blot detects proteins with antibodies after separation by electrophoresis.)

Substitutions are numbered along the chain they refer to. In names and notes the source's numbering stands.

T1 sequence (P35968 20-1356): as above

B1: TIMP3Cys1-Ser: recombinant TIMP3 protein with reduced metalloproteinase-inhibitory activity, expressed from adenovirus Rad66 (protein)
chain: STCSPSHPQDAFCNSDIVIRAKVVGKKLVKEGPFGTLVYTIKQMKMYRGFTKMPHVQYIHTEASESLCGLKLEVNKYQYLLTGRVYDGKMYTGLCNFVERWDQLTLSQRKGLNYRYHLGCNCKIKSCYYLPCFVTSKNECLWTDMLSNFGYPGYQSKHYACIRQKGGYCSWYRGWAPPDKSIINATDP
For the molecule B1, in the data set on MS1 endothelial cells, the “binding of VEGF to cell surfaces” value was “reduced binding of VEGF to its cell surfaces”. The “apoptosis after adenovirus infection” value in [1] (MS1 cells infected with wild-type or mutant virus) was “No apoptosis was observed”. The “proliferative response to VEGF ([3H]thymidine incorporation)” value in data set [1] (cells infected with Rad-TIMP3Cys1-Ser) was “still inhibited in their proliferative response to VEGF”. Besides, the “metalloproteinase-inhibitory activity (reverse zymography of ECM extracts)” value in the data set with MMPs [2] was “reduced metalloproteinase-inhibitory activity”.

B2: mutant TIMP3: Sorsby fundus dystrophy-related S156C mutant TIMP3 expressed in PAEKDR endothelial cells (protein)
chain: B1 chain with S1C, S156C
As to B2, the “increase of VEGF-stimulated ERK1/2 phosphorylation” value in [3] is recorded as 2-3 fold. Further, the “VEGF-stimulated migration of cells expressing TIMP3 variant” value with PAEKDR cells [4] is listed as “accentuated migratory response towards VEGF”. Besides, in the data set with VEGFR-2 (KDR), the “increase in [125I] VEGF binding” value was 2-3 fold. Also, in the data set on surface KDR, the “surface KDR labeling relative to empty vector or WT-TIMP3 cells” value was “increased fluorescent labeling for surface KDR”. Moreover, the “MMP inhibitory activity in ECM and CM (reverse zymography)” value in the data set with MMPs [5] is “minimal MMP inhibitory activity”. Further, the VEGF-stimulated tube formation entry with PAEKDR cells [6] was “forming extensive tubular networks, but by day 5 the tubular structures started to regress and collapse”. For the same molecule, the “cleaved sVEGFR-2 in the CM, more than mock cells” value in the data set on soluble VEGFR-2 is on record as 7- to 8 fold. In addition, the “VEGF-stimulated formation of membrane ruffles” value in the data set with PAEKDR cells [7] was “a majority of mutant cells showed more striking edge ruffles”. Also, the “level of phosphorylated KDR after VEGF stimulation vs mock cells” value with KDR is on record as ~2 fold.

The values are drawn from patent US8431396B2, “Anti-angiogenic peptides” (The Cleveland Clinic Foundation, priority 2003, dated 2013).
